{"source": "paper PMC3711453", "key": {"[1]": {"biological_target": "T1, His6-MTSF1 (lacking first 146 aa) (Arabidopsis thaliana? (Arabidopsis, …, UniProt Q9M9X9 147-987))", "T1 sequence": "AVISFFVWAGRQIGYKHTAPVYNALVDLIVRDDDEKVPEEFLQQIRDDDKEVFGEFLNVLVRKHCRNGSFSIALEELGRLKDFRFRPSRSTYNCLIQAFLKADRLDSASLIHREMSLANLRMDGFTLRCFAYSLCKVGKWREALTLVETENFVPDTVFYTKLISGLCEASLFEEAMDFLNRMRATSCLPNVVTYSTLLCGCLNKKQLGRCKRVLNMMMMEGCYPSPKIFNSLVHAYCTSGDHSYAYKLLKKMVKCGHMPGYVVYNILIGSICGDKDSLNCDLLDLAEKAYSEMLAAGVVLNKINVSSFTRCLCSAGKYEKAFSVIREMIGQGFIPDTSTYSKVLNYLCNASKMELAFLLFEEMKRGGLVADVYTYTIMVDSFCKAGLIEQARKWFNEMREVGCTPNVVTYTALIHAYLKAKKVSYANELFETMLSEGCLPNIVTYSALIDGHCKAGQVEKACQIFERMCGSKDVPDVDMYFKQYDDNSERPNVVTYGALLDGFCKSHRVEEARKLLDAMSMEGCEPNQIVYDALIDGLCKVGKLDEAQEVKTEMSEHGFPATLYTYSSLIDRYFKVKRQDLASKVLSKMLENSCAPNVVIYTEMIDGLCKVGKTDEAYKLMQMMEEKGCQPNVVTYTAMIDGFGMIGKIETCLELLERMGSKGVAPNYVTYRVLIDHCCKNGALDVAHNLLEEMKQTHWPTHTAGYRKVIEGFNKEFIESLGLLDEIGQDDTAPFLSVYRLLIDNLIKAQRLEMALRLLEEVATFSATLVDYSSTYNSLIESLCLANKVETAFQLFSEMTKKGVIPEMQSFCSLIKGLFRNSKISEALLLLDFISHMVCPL", "experiment": "EMSA"}, "[2]": {"biological_target": "T1, His6-MTSF1 (lacking first 146 aa)", "experiment": "EMSA", "remark": "listed apart in the source"}}, "note": "Read-outs that look alike come from different tables or passages of the source."}
{"binder": "GAGGAAUCAGCAAAGAAAAGAAAAACGGGU (ssRNA)", "note": "[3'ND4-1 (entire nad4 3' UTR, 30 nt)]", "values": [{"measurement": "binding result", "setting": "[1]", "value": "binds"}]}
{"binder": "AACAUGGCAAAUUUCAUUGA (ssRNA)", "note": "[3'ND4-2 (last 20 nt of nad4 coding sequence)]", "values": [{"measurement": "binding result", "setting": "[1]", "value": "no binding"}]}
{"binder": "CAACAUCUUAAUGUGUAUUUGAGGAUAUUU (ssRNA)", "note": "[3'ND4-4 (30 nt downstream of nad4 mRNA 3' end)]", "values": [{"measurement": "binding result", "setting": "[1]", "value": "no binding"}]}
{"binder": "CAAAGAAAAGAAAAACGGGU (ssRNA)", "note": "[3'ND4-3 (last 20 nt of nad4 3' UTR)]", "values": [{"measurement": "binding result", "setting": "[2]", "value": "binds"}]}
